Data on two molecules can be found in publication PMC6987200 (Nature Communications, 2020).

Data set [1] concerns the molecule itself. The data set is described as follows: native MS; OmpF after detergent exchange from n-octyl-β-D-glucopyranoside to OGDs 1-3 on Superdex 200; MS buffer 200 mM NH4OAc, pH 6.8; HCD 200 V.
The target in data set [2] is T1, aquaporin channel (AqpZ) fused to GFP, P60844.
T1 chain: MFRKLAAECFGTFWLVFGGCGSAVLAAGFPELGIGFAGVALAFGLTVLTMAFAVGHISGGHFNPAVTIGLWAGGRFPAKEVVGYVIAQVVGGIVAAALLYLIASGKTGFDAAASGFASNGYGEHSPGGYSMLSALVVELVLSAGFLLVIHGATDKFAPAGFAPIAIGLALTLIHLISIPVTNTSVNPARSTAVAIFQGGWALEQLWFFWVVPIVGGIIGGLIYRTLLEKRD
The data set is described as follows: native MS; AqpZ-GFP after extraction with OGD batches and IMAC; MS buffer 200 mM NH4OAc, pH 6.8, with detergent; modified Q Exactive, HCD 200 V. Particulars: remark: other sources report otherwise.

Values joined by “and” are separate entries in the source; they are usually repeats but may differ in a detail not shown here. Identical values can stand only once.

B1: OmpF (natural protein, UniProt P02931 23-362, looked up)
chain: AEIYNKDGNKVDLYGKAVGLHYFSKGNGENSYGGNGDMTYARLGFKGETQINSDLTGYGQWEYNFQGNNSEGADAQTGNKTRLAFAGLKYADVGSFDYGRNYGVVYDALGYTDMLPEFGGDTAYSDDFFVGRVGGVATYRNSNFFGLVDGLNFAVQYLGKNERDTARRSNGDGVGGSISYEYEGFGIVGAYGAADRTNLQEAQPLGNGKKAEQWATGLKYDANNIYLAANYGETRNATPITNKFTNTSGFANKTQDVLLVAQYQFDFGLRPSIAYTKSKAKDVEGIGDVDLVNYFEVGATYYFNKNMSTYVDYIINQIDSDNKLGVGSDDTVAVGIVYQF
notes: OmpF, a bacterial outer membrane protein; also called trimeric OmpF; source: detergent exchanged on Superdex 200
On to B1, for which the stoichiometry N (usually a count of units in the complex or per binding partner) in data set [1] came out at 3.

B2: aquaporin channel (AqpZ) fused to GFP, P60844 1-231 (natural protein)
chain: T1 chain
On to B2, for which the stoichiometry N in data set [2] is 4 and 2.
